experiment: soluble on expression in E. coli; label from the status in PepcDB or PDB records

Sequence	soluble on expression in E. coli
MDSFLMKGYIKEANIDYSCSRGSMEDLPKWEFREIPKVPRAVMPSLSLEERKNNFNEVELGLSEEVARKEARRCLKCGCSARFTCDLRKEASNHGIVYEEPIHDRPYIPKVDDHPFIVRDHNKCISCGRCIAACAEIEGPGVLTFYMKNGRQLVGTKSGLPLRDTDCVSCGQCVTACPCAALDYRRERGKVVRAINDPKKTVVGFVAPAVRSLISNTFGVSYEEASPFMAGLLKKLGFDKVFDFTFAADLTIVEETTEFLSRIQNKGVMPQFTSCCPGWINFVEKRYPEIIPHLSTCKSPQMMMGATVKNHYAKLMGINKEDLFVVSIVPCLAKKYEAARPEFIHDGIRDVDAVLTTTEMLEMMELADIKPSEVVPQEFDEPYKQVSGAGILFGASGGVAEAALRMAVEKLTGKVLTDHLEFEEIRGFEGVKESTIDVNGTKVRVAVVSGLKNAEPIIEKILNGVDVGYDLIEVMACPGGCICGAGHPVPEKIDSLEKRQQVLVNIDKVSKYRKSQENPDILRLYNEFYGEPNSPLAHELLHTHYTPKHGDSTCSPERKKGTAAFDVQEFTICMCESCMEKGAENLYNDLSSKIRLFKMDPFVQIKRIRLKETHPGKGVYIALNGKQIEEPMLSGNIPDESESE	soluble
MVSDAHFQGQFEVELKYRVKNHDAFLNMVKQIEHEVMFENNQESDWFYDTPQRTLTQQGKSLVLREIQPAGIKLWIVKGPEADRCEATNITKLDSAQSMLENMGYEVIQCSKKIRSIFFVGEFHITLDFLDGFGHFAEFAIMTDDETALARYRERLVALAQQFHLSEADREHRSYKEILSALEHHHHHH	soluble
MSLTISDVPTQTLPAEGEIGLIDVGSLQLESGAVIDDVCIAVQRWGKLSPARDNVVVVLHALTGDSHITGPAGPGHPTPGWWDGVAGPGAPIDTTRWCAVATNVLGGCRGSTGPSSLARDGKPWGSRFPLISIRDQVQADVAALAALGITEVAAVVGGSMGGARALEWVVGYPDRVRAGLLLAVGARATADQIGTQTTQIAAIKADPDWQSGDYHETGRAPDAGLRLARRFAHLTYRGEIELDTRFANHNQGNEDPTAGGRYAVQSYLEHQGDKLLSRFDAGSYVILTEALNSHDVGRGRGGVSAALRACPVPVVVGGITSDRLYPLRLQQELADLLPGCAGLRVVESVYGHDGFLVETEAVGELIRQTLGLADREGACREGHHHHHH	not soluble
MTAVETKKQYLTVFKEDGIAEIHLHINKSNSYDLEFYKEFNAAIDDIRFDPDIKVVIVMSDVPKFFSAGADINFLRSADPRFKTQFCLFCNETLDKIARSPQVYIACLEGHTVGGGLEMALACDLRFMGDEAGKIGLPEVSLGVLAGTGGTQRLARLIGYSRALDMNITGETITPQEALEIGLVNRVFPQAETRERTREYARKLANSATYAVSNIKLAIMNGKEMPLNVAIRYEGELQNLLFRSEDAKEGLSAFLEKRQPNWKGI	soluble
MRLCHSIILFNSLISISICSKADDPALLVASEFKEHFNVEEKQLETVEELLIKMKKLAHSRSFKGREFGHDAVEDSKKEVAISTQQGTINKKVSPFLFEGDIFLSRRQAVDILKALSKDKTKRLRRSFVSDKTATWKTMPIKYRFHESIDFYTISQIIAAIRFWEDSTCITFENVSDSPDGDYIEFFSGQGCYSMIGRNGGRQGISIGESCVKASFFVMGVIEHEIGHALGLWHEQSRPDALGYVTIERDFILPSYISDFLQRDDEIDTLGIPYDLGSVMHYGSTAFSVDQKSKTVVTRDSLYQQTIGQREKLSFYDVATINTAYCKDECKSEKTKCENGGYMRPSKCSECLCPDGLGGEKCEKNEDSKNAECGGIIKLTEEWKEIESPNYPDPGYEADQKCSWLLKAEKGKRVEIEFIEDFSFLCTSTCVDFVELKISDDLRNTGFRFCCYDKPEISFVSQTDTAIIIFRSQLSTDIGFKIQAKSNELIIKTFKNSQKTKMQILFPKLSLKNNSADAEPRTTIAPTIITTTLAPITVDAPNVWADWGEWSMCSRTCGGCGIRSRVRSCRSKKCEGRRQEFGTCNLKACPVDKHCAKLLSNNRLCNGKVCTKNDIAISSCDAPQCCPPFINVDGVCQSDQENQHDELWLSI	not soluble
MSLPTEMHHNLGAEKRSAVATTIDSFKERSQKVRALSDPNVRFVPFFGSSEWLRFDGAHPAVLAEKYNRSYRPYLLGQGGAASLNQYFGMQQMLPQLENKQVVYVISPQWFSKNGYDPAAFQQYFNGDQLTSFLKHQSGDQASQYAATRLLQQFPNVAMKDLVQKLASKEELSTADNEMIELLARFNERQASFFGQFSVRGYVNYDKHVAKYLKILPDQFSYQAIEDVVKADAEKNTSNNEMGMENYFYNEQIKKDLKKLKDSQKSFTYLKSPEYNDLQLVLTQFSKSKVNPIFIIPPVNKKWMDYAGLREDMYQQTVQKIRYQLESQGFTNIADFSKDGGEPFFMKDTIHLGWLGWLAFDKAVDPFLSNPTPAPTYHLNERFFSKDWATYDGDVKEFQEGHHHHHH	soluble
MKVAVLGAAGGIGQALALLLKTQLPSGSELSLYDIAPVTPGVAVDLSHIPTAVKIKGFSGEDATPALEGADVVLISAGVARKPGMDRSDLFNVNAGIVKNLVQQVAKTCPKACIGIITNPVNTTVAIAAEVLKKAGVYDKNKLFGVTTLDIICSNTFVAELKGKQPGEVEVPVIGGHSGVTILPLLSQVPGVSFTEQEVADLTKRIQNAGTEVVEAKAGGGSATLSMGQAAARFGLSLVRALQGEQGVVECAYVEGDGQYARFFSQPLLLGKNGVEERKSIGTLSAFEQNALEGMLDTLKKDIALGQEFVNK	soluble
GSKKRQRFVDKNGRCNVQHGNLGSERAETLMFSEHAVISMRDGKLTLMFRVGNLRNSHMVEAQIRCKLLKSRQTPEGEFLPLDQLELDVGFSTGADQLFLVSPLTICHVIDAKSPFYDLSQRSMQTEQFEVVVILEGIVETTGMTCQARTSYTEDEVLWGHRFFPVISLEEGFFKVDYSQFHATFEVPTPPYSVKEQEEMLLMSSPL	soluble
MGSSHHHHHHGSLPPREDAARVARFVTHVSDWGALATISTLEAVRGRPFADVLSLSDGPPGAGSGVPYFYLSPLQLSVSNLQENPYATLTMTLAQTNFCKKHGFDPQSPLCVHIMLSGTVTKVNETEMDIAKHSLFIRHPEMKTWPSSHNWFFAKLNITNIWVLDYFGGPKIVTPEEYYNVTVQ	soluble
MGTGQRKDPSQQRSQETVARILSATGQVLRAKGYTGCSTNAIAEAAGISKGSVYQYFANKDEIIEVLIDKIMEETTATFGTQLEQAVAKGTFLKDAALQSQLLAVLDRYCDILGSLLNDAPHLALTAHRSVRIEERCRDLLRTYVTLNPSAIGPGVDLEALLLVLTVSYREVSLEYLRRDLRDRRNELATVLYDMTMGGLAGRVTRGV	not soluble
MQQHEIRRFVERYFAANGCTFVEASDDYLTVQLTAEMDKELMNRPFYWHYIERTGGVPQPMRLTLITRASERTDKLKGERLHFGAPRLHQLFRSAQKRGSFIRLYEEPNAPLDGNAALHPWLGMNVTISYECDRKKDEIVSLGLHLISGTIVESFHERMRERRLTPKIPDYCFTISPLIKPRSGIGRLEQYIRSRIAADNHAWADEARRRWADDLALLDEFYKDCEEKPECYYIEKEALEKQYKPRITVSVINGGLFYLLPRSS	not soluble
MRFITETELRDLYKAEPFTAYTLEPRTKLTPEARQFLVDRGIKLAEAQDCKSKSTGNGKSGTEQESWNVLRLRRRMESLESLFLMVGANLLSGGSTVLAEEVFALGRCFSEVKKTAWEQTSPVNLQFQDWSEAEMKNCSTYLGKHFDITEFHVRTENGAAIASLNHLRATLRELESAVLEAYWDEEFNVCSRQDLIEKINLIMNILCVMIWKCLGGQQCKT	not soluble
MAHHHHHHMRRCFKLQAPPGVLSILSDLAQPRTSTSYQELLRNSHLPAQPLPFLPPPRWAAELSRVLHRTFPDVVQHHHTRFLQVFVHPSFTTAAGVSGTMQPLVAVGESLLERIGGLWILATFESTRREEYASLLALLTSDTALCRVLRDHWRLEHMVLTDASADLFSRQRLSSTKGLVCWLSSHGNVNGAQSLPEPFGAGCVKAMVAAVLLEHGNDAAEHFVKSEVLPYVL	not soluble
MSVLYIQIRRNQITVRDLESKREVSGDAAFSNQRLLIANFFVAEKVLQDLVLQLHPRSTWHSFLPAKRMDIVVSALEMNEGGLSQVEERILHEVVAGATLMKYRQFHIHAQSAVLSDSAVMAMLKQK	soluble
AVPSPPPASPRSQYNFIADVVEKTAPAVVYIEILDRHPFLGREVPISNGSGFVVAADGLIVTNAHVVADRRRVRVRLLSGDTYEAVVTAVDPVADIATLRIQTKEPLPTLPLGRSADVRQGEFVVAMGSPFALQNTITSGIVSSAQRPARDLGLPQTNVEYIQTDAAIDFGNAGGPLVNLDGEVIGVNTMKVTAGISFAIPSDRLREFLHRGEKKNSSSGISGSQRRYIGVMMLTLSPSILAELQLREPSFPDVQHGVLIHKVILGSPAHRAGLRPGDVILAIGEQMVQNAEDVYEAVRTQSQLAVQIRRGRETLTLYVTPEVTE	soluble
MGSDKIHHHHHHACSLQQYQTKIVANNNYGIYQSLTRKGPVRQMGVTGTFKYSHFQASSVKKIKHNTYWYVLINGHKAGWVNQSAFARNKISVAKRVSLVKNPYYDFNVKDAINYVTDSSGSVVDLDKVHVSQNTVSSAKAGIHNITYTYGKGKAHSLIRVRNDQYEGIVNANKKPQMGKSGVTWFKHFKTSGNWGKGSSYAPETKPHVLKNGNFKLKTVFYQPATLSQGDSKLGVVGPLPEGLAVSDGRMYATMYDRPTRTHAHIVSYQLNQIPNRYVMQKLPWLPWPEFARLSATIKVSPLIKLGHGQAISTSKKYIYVIANNHLLRNNPESEEIMQISKNDLQIKKIWTFKIWDQKSEYGRYVHNAVFLNDHKFIAVYHSSTMNRFEYWEVTRHGNSWYPKEIGATKGEFMRNNSPVQGIAYDKHKKQIYLAFNDYLFKLNRKGRVIENGHFNTGREFEGICVDNKTFYAELAQRPELLKQKLK	not soluble
MGSDKIHHHHHHMKITNFEQTGLCEIEGILSIENTENIEVSELREILKCANVSFVLEGINRLQSTLICELKASYVQQSQRYVTLKENSFDLPDLRHEDELKAKELLRKAFELYEEMSRLKEGQFKGRPKAENYLYGIPIEDARYILPLACKTNISMAMNGEKLIDFFYLLNDRHYSEIFSDLKKLVLSKLPEKLSLFLSKLKSNYNRKLIENFYKSAFDKISECDNIVLLNSFEDLDLKVGLGAITSTHDKTPSEVMELWGDNATEKAKGVSERVLGYGHESIAEQARTTFGMMCSMVTYHQQIRHRLSENHREALFNIIQDEKREVVVPSTVKESEFYNRFVELTHEFKKFRKYVLKEYGEEKSLNFLLNCDRIKLVISTNARIDCQMLADRICFNAQWEIRELSTKKLEKLRKLSQVLYVKALPSCVFGKCKEGKFTCGKQMIMKNKFA	not soluble
GAQRRNEIQVPDLDGYTTLKCDFHMHSVFSDGLVWPTVRVDEAYRDGLDAISLTEHIEYRPHKQDVVSDHNRSFDLCREQAEKLGILLIKGSEITRAMAPGHFNAIFLSDSNPLEQKDYKDAFREAKKQGAFMFWNHPGWDSQQPDTTKWWPEHTALYQEGCMHGIEVANGHLYMPEAIQWCLDKNLTMIGTSDIHQPIQTDYDFEKGEHRTMTFVFAKERSLQGIREALDNRRTAAYFHELLIGREDLLRPFFEKCVKIEEVSRNEQGVTLSITNVTDLVLKLKKTAHDTLLVYFRDMTLKPHTRYTVRIGFKQGIKGGDVNFEVTNFIVAPDKGLKYTISL	soluble
SMNSNMGSDSGTMGSDSDEENVAARASPEPELQLRPYQMEVAQPALEGKNIIICLPTGSGKTRVAVYIAKDHLDKKKKASEPGKVIVLVNKVLLVEQLFRKEFQPFLKKWYRVIGLSGDTQLKISFPEVVKSCDIIISTAQILENSLLNLENGEDAGVQLSDFSLIIIDECHHTNKEAVYNNIMRHYLMQKLKNNRLKKENKPVIPLPQILGLTAS	soluble

— the DeepSol protein solubility set
